This assay addresses LRIM1 (An. gambiae). The assay is described as follows: non-reducing SDS-PAGE western blot. On the technique in general: In western blotting, separated proteins are transferred to a membrane and probed.

The stoichiometry N is the number of molecules, sites or subunits per partner or assembly.

Consider LRIM1 (natural protein), for which the stoichiometry N was 2.
